The source of these data is patent US20160002338A1 (Hoffmann-La Roche, published 2016).

Assay [1] has as its target T1, human recombinant HER3 ECD (human, UniProt P21860 20-643).
T1 construct: 68 kDa; also called human-Her3-ECD; full length Her3 ECD
As to the kind of experiment: SPR Biacore 3000, antibody captured, 25 C. Here is the method: (§1) A CM5 series sensor was mounted into the system and was normalized in HBS-ET buffer (10 mM HEPES pH 7.4, 150 mM NaCl, 3 mM EDTA, 0.005% w/v Tween 20) according to the manufacturer's instructions. The sample buffer was the system buffer supplemented with 1 mg/ml CMD (Carboxymethyldextran). The system operated at 25° C. 10000 RU RAM-Fcγ(relative units of Fcγ-fragment Rabbit Anti-Mouse IgG/Jackson Laboratories) were immobilized according to the manufacturer's instructions using EDC/NHS chemistry on all flow cells. The sensor was deactivated using 1M ethanolamine. Analytes in solution were injected at 100 μl/min at different concentration steps of 0 nM, 1.1 nM, 3.7 nM, 11.1 nM, 33.1 nM and 90 nM for 2 min. The dissociation was monitored for 5 min. Acidic regeneration of the sensor surface was achieved using three consecutive injections of 10 mM Glycine pH 1.7 at 30 μl/min for 60 sec. Kinetic data were evaluated according to a Langmuir fit.
On the technique in general: In SPR one partner is held on a chip, and binding of the other changes the refractive index at the surface.

Assay [2] concerns the target T2, TtSlyD-FKBP-Her3.
T2 construct: 15 kDa; N-terminal Met may be present or not; also called Thermus thermophilus SlyD FKBP-Her3; thermo SlyD-Her3
T2 chain: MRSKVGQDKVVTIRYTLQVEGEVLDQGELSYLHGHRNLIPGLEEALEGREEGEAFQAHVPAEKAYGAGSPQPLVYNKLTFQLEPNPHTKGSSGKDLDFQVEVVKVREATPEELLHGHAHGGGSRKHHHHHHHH
Nature of the assay: SPR Biacore 3000, antibody captured, 25 C. How it is done: as §1

The target of a further assay is T3, HER3 ECD-HRG complex (human, UniProt P21860 20-643).
T3 construct: also called Heregulin/Her-3 ECD
Nature of the assay: SPR Biacore 3000, antibody captured, 25 C. Here is the method:
as §1

For assay [3], the target named is T1, human recombinant HER3 ECD. As to the kind of experiment: SPR Biacore 4000, antibody captured, antigen 150 nM, 25 C. Here is the method:
(§2) In all assay the test antibodies were captured. The system was under the control of the software version V1.1. The instrument buffer was HBS-EP (10 mM HEPES (pH 7.4), 150 mM NaCl, 1 mM EDTA, 0.05% (w/v) P20). The system operated at 25° C. 30 μg/ml Rabbit polyclonal antibody (RAM IgG, (Rabbit anti Mouse IgG with Fc gamma specificity) GE Healthcare) in 10 mM sodium acetate buffer (pH 4.5) was immobilized using EDC/NHS chemistry according to the manufacturer's instructions on the spots 1, 2, 4 and 5 in the flow cells 1, 2, 3 and 4. The sensor was saturated using 1M ethanolamine. In each flow cell, referenced signals were calculated using spots 1-2 and spots 5-4, spot 3 served as a blanc control. […] The antibody capture level (CL) in response units was monitored. […] Thereafter, the antibody-antigen complex dissociation signal was recorded for 5 min. […] The recorded signal shortly before the end of the injection of the antigen was denoted as binding late (BL) in response units. The recorded signal shortly before the end of the recording of the dissociation is denoted as stability late (SL) in response units. The dissociation rate constants were determined calculated The antibody-antigen complex stability in minutes was calculated with the following formula: ln(2)/60*kd. The Molar Ratio was calculated with the formula: MW (antibody)/MW(antigen)*BL (antigen)/CL (antibody). […]

In assay [4] the target is T2, TtSlyD-FKBP-Her3. Described as above. How it is done: as §2
In a further assay the target is human HER1 ECD (human, UniProt P00533 25-645). Nature of the assay: SPR Biacore T200, antibody captured, 25 C. Here is the method:
(§3) A Biacore T200 instrument (GE Healthcare) was mounted with a CM5 series sensor. The sensor was normalized in HBS-ET buffer (10 mM HEPES pH 7.4, 150 mM NaCl, 3 mM EDTA, 0.05% w/v Tween 20) according to the manufacturer's instructions. The sample buffer was the system buffer supplemented with 1 mg/ml CMD (Carboxymethyldextran, Sigma #86524). The system operated at 25° C. 6500 RU RAM-Fey (relative units of Fey-fragment RamIgG, GE Healthcare) were immobilized according to the manufacturer's instructions using amine coupling EDC/NHS chemistry on all four flow cells. The sensor was deactivated using 1M ethanolamine. […] Concentration dependent kinetics were measured. […] All analytes were injected for 5 min association time and 10 min dissociation time at 100 μl/min flow rate. The sensor capture system was regenerated by a 3 min injection at 10 μl/min of 10 mM glycine pH 1.7. Where possible kinetic data was evaluated using the Biacore T200 evaluation software.

Assay [5] deals with T4, human recombinant HER4 ECD (human, UniProt Q15303 26-651).
T4 construct: also called full length Her4 ECD
T4 sequence: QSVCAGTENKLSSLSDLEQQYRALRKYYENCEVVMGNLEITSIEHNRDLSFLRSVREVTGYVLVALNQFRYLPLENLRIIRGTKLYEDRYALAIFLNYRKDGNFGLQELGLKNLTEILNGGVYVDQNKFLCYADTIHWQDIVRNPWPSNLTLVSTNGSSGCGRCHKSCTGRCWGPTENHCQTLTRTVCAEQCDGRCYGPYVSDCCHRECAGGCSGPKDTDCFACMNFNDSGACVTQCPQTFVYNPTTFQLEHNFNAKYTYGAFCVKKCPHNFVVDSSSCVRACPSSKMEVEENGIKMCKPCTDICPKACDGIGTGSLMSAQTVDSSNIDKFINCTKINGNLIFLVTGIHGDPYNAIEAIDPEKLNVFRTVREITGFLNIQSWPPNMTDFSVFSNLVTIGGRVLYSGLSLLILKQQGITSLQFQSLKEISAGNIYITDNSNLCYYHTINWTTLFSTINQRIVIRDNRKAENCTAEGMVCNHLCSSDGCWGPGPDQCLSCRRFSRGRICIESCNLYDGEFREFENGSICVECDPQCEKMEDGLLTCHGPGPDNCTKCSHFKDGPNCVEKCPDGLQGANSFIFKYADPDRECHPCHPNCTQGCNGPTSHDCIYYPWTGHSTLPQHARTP
As to the kind of experiment: SPR Biacore T200, antibody captured, 25 C. Here is the method: as §3

T1 sequence (P21860 20-643): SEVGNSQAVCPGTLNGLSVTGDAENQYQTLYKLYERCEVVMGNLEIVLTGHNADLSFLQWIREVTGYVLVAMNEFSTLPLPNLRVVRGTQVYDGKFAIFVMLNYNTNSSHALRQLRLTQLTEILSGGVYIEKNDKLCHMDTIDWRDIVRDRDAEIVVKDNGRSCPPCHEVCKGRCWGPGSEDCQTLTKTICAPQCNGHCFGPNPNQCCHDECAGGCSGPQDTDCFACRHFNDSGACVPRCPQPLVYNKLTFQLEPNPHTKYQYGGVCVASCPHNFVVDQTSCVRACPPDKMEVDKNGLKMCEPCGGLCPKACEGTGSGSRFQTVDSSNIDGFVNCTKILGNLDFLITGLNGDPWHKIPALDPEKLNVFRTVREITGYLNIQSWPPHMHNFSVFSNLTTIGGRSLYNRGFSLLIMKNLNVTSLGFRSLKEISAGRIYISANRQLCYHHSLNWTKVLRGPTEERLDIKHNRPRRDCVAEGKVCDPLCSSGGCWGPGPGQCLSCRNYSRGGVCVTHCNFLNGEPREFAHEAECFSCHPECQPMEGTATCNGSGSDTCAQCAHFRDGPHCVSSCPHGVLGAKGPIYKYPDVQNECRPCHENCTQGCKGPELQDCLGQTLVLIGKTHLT
T3 sequence (P21860 20-643 limits assumed, one chain of several): as the sequence (P21860 20-643) above

B1: anti-HER3/HER4 antibody M-05-74 (antibody, V domains shown)
VH: QVQLQQSGAELAKPGASVKMSCKTSGYTLTDYWIHWVKQRPGQGLEWIGYINPYTGYTESNQKFKDKATLTADKSSNTAYIQLSSLTSEDSAVYYCARPYYYGDYWGQGTTLTVSS
VL: QIVLTQSPAIMSASPGERVTITCSASSSVSYMHWFQQKPGTSPKLLIYSTSNLASGVPARFSGSGSGTSYSLTISRMEAEDAATYYCQQRSSYPFTFGSGTKLEIK
notes: murine monoclonal antibody from hybridoma (supernatant or purified); also called M-074; M-5-74
Consider B1, for which the “Binding Late BL” value stood at 36 RU in assay [1], 68.1 RU in the assay with TtSlyD-FKBP-Her3 [2] and 199 RU with HER3 ECD-HRG complex. In addition, the “Molar Ratio MR” value in assay [1] is 0.2; with TtSlyD-FKBP-Her3 [2], 1.5; with HER3 ECD-HRG complex it was 0.8; in assay [3], 0.5; in the assay with TtSlyD-FKBP-Her3 [4], 1.1; in assay [5], 0.1. For the same molecule, the binding result with human HER1 ECD is listed as “no binding (tested: 90 nM)”.
